The record followed here is US20160017053A1 (IMMUNOGEN, published 2016).

Where a chain is given by its changes, count along the chain named.

Assay [1] has as its target human EGFR (epidermal growth factor receptor) (human) (UniProt P00533). The assay can be described thus: flow cytometry, binding curve of the biotinylated ligand on MDA-MB468 cells. (In general: In flow cytometry, cells or beads pass a laser one at a time.)
Assay [2] concerns the target T1, human EGFR (epidermal growth factor receptor) (human, UniProt P00533 25-1210). In words: cell-based or functional assay.
Assay [3] has as its target T1, human EGFR (epidermal growth factor …). The assay can be described thus: flow cytometry on MDA-MB468 or A431 cells; EC50 of the curve taken as apparent Kd.
The target is the same in assay [4]. In words: flow cytometry on MDA-MB468 cells.
Assay [5] has the same target. In words: flow cytometry on MDA-MB468 cells, apparent Kd from non-linear regression of geo mean fluorescence against [Ab] (M).

The term EC50 denotes the concentration needed to bring the measured effect to its halfway point. In assay [1], biotinylated EGF (Invitrogen) (ligand) gave an EC50 of 1.8 nM.

B1: muEGFR-8-SMCC-DM1 conjugate (antibody, V domains shown)
VH: EVQLQQSGAELVKPGASVKLSCTTSGFNIKDTYIHWVKKRPEQGLEWIGRIDPTNGNNKYDPKFQGKATITADTSSNTAYLQLSSLTSEDTAVYYCTREDGYRYDDWYFDVWGAGTTVTVSS
VL: QIVLTQSPASMSASPGEKVTMTCSASSSVSYMHWYQQKSGTSPKRWIYATSKLASGVPARFSGSGSGTSYSLTISSMEAEDAATYYCQQWSSNPLTFGAGTKLELKR
modifications: DM1 linked through SMCC to the antibody; drug load and sites not stated
notes: Maytansinoid conjugate of the whole murine EGFR-8 antibody; its preparation is not described separately
For B1, in assay [2], the “EC50 of in vitro cytotoxicity on NCI-H226 cells (WST-8)” value came out at 0.68 nM, the “EC50 of in vitro cytotoxicity on NCI-H292 cells (WST-8)” value came out at 0.43 nM and the “EC50 of in vitro cytotoxicity on NCI-H322M cells (WST-8)” value is 3.07 nM. Besides, the Kd in assay [3] was 4.54 nM.

B2: murine EGFR-8 antibody (antibody, V domains shown)
VH: B1 VH
VL: B1 VL
notes: Mouse monoclonal antibody purified from hybridoma; also called muEGFR-8
B2: the Kd in assay [3] worked out at 1.43 nM.

B3: chimeric ML66-SMCC-DM1 (antibody, V domains shown)
VH: QVQLKESGPGLVQPSQTLSLTCTVSGLSLASNSVSWIRQPPGKGLEWMGVIWNHGGTDYNSVIKSRLSISRDTSKSQVFLKMNSLQTEDTAMYFCVRKGGIYFDYWGQGVMVTVSS
VL: DTVLTQSPALAVSPGERVTISCRASESVSTLMHWYQQKSGQQPKLLIYLASHRESGVPARFSGSGSGTDFTLTIDPMEADDTATYYCQQSRNDPWTFGGGTNLELK
modifications: Maytansinoid DM1 is linked to the antibody through the non-cleavable SMCC linker. The attachment sites and drug load for chML66 are not stated, and the letters cannot carry them.
On to B3, for which, in assay [2], the “EC50 of cytotoxicity on KB cells with 1 µM naked chML66 antibody blocking” value is 30 nM and the “EC50 of cytotoxicity on KB cells without blocking antibody” value came out at 3 nM.

B4: huML66-SMCC-DM1 conjugate (antibody, human IgG1, kappa, V domains shown)
VH: B3 VH with K5Q, Q13K, Q16E, S61P, V62S, Q86T, T87A, E88A, M111L
VL: DTVLTQSPSLAVSPGERATISCRASESVSTLMHWYQQKPGQQPKLLIYLASHRESGVPARFSGSGSGTDFTLTIDPMEAEDTATYYCQQSRNDPWTFGQGTKLELKR
modifications: DM1 linked through SMCC; sites not stated; DM1 linked through SMCC; 3.5-4 DM1 molecules per antibody; sites not stated
On to B4, for which the Kd in assay [3] was found to be 2.33 nM.

B5: huML66-SPDB-DM4 conjugate (antibody, human IgG1, kappa, V domains shown)
VH: B3 VH with K5Q, Q13K, Q16E, S61P, V62S, Q86T, T87A, E88A, M111L
VL: B4 VL
modifications: DM4 linked through SPDB; sites not stated; DM4 linked through SPDB; 3.5-4 DM4 molecules per antibody; sites not stated
For B5, the Kd in assay [3] was found to be 2.93 nM.

B6: humanized ML66 (huML66) antibody (antibody, human IgG1, kappa, V domains shown)
VH: B3 VH with K5Q, Q13K, Q16E, S61P, V62S, Q86T, T87A, E88A, M111L
VL: B4 VL
As a reminder, the EC50 (read off the curve) is the concentration giving half of the maximal effect. A high value points to a less potent agent. For the molecule B6, the “EC50 (read off the curve)” value in assay [4] was ~1 nM. Further, the values for the Kd in assay [5] and in assay [3] were 1.23 nM and 1.12 nM, respectively.

B7: rat ML66 antibody (antibody, V domains shown)
VH: B3 VH
VL: B4 VL with S9A, A18V, P39S, E80D, Q99G, K102N
notes: Rat monoclonal antibody purified from hybridoma
Consider B7, for which, in assay [4], the “EC50 (read off the curve)” value was ~2 nM. Also, the Kd in assay [5] worked out at 1.94 nM.
